Laboratory results from US20240182562A1 (ORICELL THERAPEUTICS, published 2024).

T1: Mouse CLDN18.2 (mouse, UniProt P56857 10-264)
T1 chain: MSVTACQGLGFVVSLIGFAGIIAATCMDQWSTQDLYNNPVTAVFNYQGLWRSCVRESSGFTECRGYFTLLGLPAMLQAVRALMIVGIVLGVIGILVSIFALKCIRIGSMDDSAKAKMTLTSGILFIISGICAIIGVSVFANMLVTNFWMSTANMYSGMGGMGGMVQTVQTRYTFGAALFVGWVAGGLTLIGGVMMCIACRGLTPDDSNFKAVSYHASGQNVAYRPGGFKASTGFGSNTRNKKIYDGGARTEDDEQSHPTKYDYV

T2: Cynomolgus monkey CLDN18.2 (cynomolgus monkey)
T2 chain: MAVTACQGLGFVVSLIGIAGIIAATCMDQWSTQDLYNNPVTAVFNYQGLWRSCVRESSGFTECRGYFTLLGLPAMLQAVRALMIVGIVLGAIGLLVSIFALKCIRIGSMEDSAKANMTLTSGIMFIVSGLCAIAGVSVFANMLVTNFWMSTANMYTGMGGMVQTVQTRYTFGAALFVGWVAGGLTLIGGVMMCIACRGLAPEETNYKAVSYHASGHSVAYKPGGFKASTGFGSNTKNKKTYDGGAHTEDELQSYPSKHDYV


What was measured:
Human CLDN18.2 [1] = molecular target: T3, Human CLDN18.2 (human, UniProt P56856-2 1-261); test: FACS on SP2/0-hCLDN18.2 cells (FIG. 12)
T3 construct: whole, on cells; also called human Claudin18.2; hCLDN18.2
Experimental: After counting, the SP2/0-hCLDN18.2 cell was resuspended in a flow cytometry buffer, adjusted to the density of 1×10⁶ cells/ml, and then added into V-bottom 96-well plates at 30 μl/well. Primary antibodies with initial working concentration of 80 μg/ml were added at 30 μl/well, and then gradient diluted with the flow cytometry buffer at a four-fold ratio to form 7 gradients. A PBS negative control was set up for each antibody. After inoculation at 4° C. for one hour, the plates were washed once with the flow cytometry buffer. The secondary antibody, i.e., goat F(ab′)2 anti-human IgG-Fc (DyLight® 650) (abcam, Cat #ab98593), was added at 30 μl/well. After inoculation at 4° C. for 30 minutes, the plates were washed twice with the flow cytometry buffer and the cells were shaken dispersedly. The flow cytometry buffer was added at 25 μl/well, and then the cells were ready for FACS on the flow cytometer. In the meanwhile, after counting, the SP2/0-hCLDN18.1 cell was loaded in plates. Primary antibodies with initial working concentration of 10 μg/ml were gradient diluted at a three-fold ratio to form 5 concentration gradients in total. The secondary antibody used was goat F(ab′)2 anti-human IgG-Fc (DyLight® 650) (abcam, Cat #ab98593). Original data were entered into the software GraphPad8.0 for graphing and calculation.

Human CLDN18.2 [2] = molecular target: T3, Human CLDN18.2; test: FACS, hybridoma culture supernatant on CHO-human CLDN18.2 cells
Experimental: (§1) The cells were co-incubated at 4° C. for 1 hour and the plates were washed once with the flow cytometry buffer. A corresponding secondary antibody was added at 30 ul/well and co-incubated at 4° C. for 30 minutes and the plates were then washed with the flow cytometry buffer twice. After the cells were shaken loose, the FACS buffer was added at 25 μl/well, and FACS was then performed on the iQue Screener flow cytometer (purchased from IntelliCyt Company). The mother clones that were positive for CLDN18.2 in the primary sorting were picked for expansion culture in 24-well cell culture plates. Three days later, the cell supernatant was taken for re-sorting by FACS. […] The positive hybridoma mother clones were monocloned using a gradient dilution method. After two to three rounds of subcloning and FACS, a monoclonal hybridoma cell secreting a CLDN18.2-specific antibody was obtained.

Human CLDN18.2 [3] = molecular target: T3, Human CLDN18.2; test: FACS, hybridoma culture supernatant on 293T-human CLDN18.2 cells
Experimental: as §1

Mouse CLDN18.2 = molecular target: T1, Mouse CLDN18.2; test: FACS on 293T-mouse CLDN18.2 cells (FIG. 4)
Experimental: (§2) The species cross-binding activity of the above antigen-binding proteins to mouse CLDN18.2 and cynomolgus monkey CLDN18.2 were tested through FACS on the CytoFLEX flow cytometer (purchased from BECKMAN COULTER Company) using PBS containing 0.1% BSA as a buffer. […] The treated cells were then resuspended in a flow cytometry buffer to the cell density of 1×10⁶ cells/ml, and then added into V-bottom 96-well plates at 30 μl/well. Primary antibodies with initial concentration of 10 ug/ml were gradient diluted with the flow cytometry buffer at a three-fold ratio to form 6 gradients. […] After inoculation at 4° C. for one hour, the plates were washed once with the flow cytometry buffer. The secondary antibody (abcam, Cat #ab98593) was added at 30 μl/well. After incubation at 4° C. for 30 minutes, the plates were washed twice with the flow cytometry buffer and the cells were shaken dispersedly. The flow cytometry buffer was added at 30 μl/well, and then the cells were tested on the flow cytometer. Original data were entered into the software GraphPad8.0 for graphing and calculation.

[4] = molecular target: T2, Cynomolgus monkey CLDN18.2; test: FACS on 293T-cynomolgus monkey CLDN18.2 cells (FIG. 4)
Experimental: as §2

binding result (Human CLDN18.2 [1]) | Average fluorescence intensity (Human CLDN18.2 [2]) | Average fluorescence intensity (Human CLDN18.2 [3]) | binding result (Mouse CLDN18.2) | binding result [4] | Binder
binds |  |  |  |  | Standard antibody (antibody, V domains shown, detected with anti-human IgG-Fc) VH: QVQLQESGPGLIKPSQTLSLTCTVSGGSISSGYNWHWIRQPPGKGLEWIGYIHYTGSTNYNPALRSRVTISVDTSKNQFSLKLSSVTAADTAIYYCARIYNGNSFPYWGQGTTVTVSS VL: DIVMTQSPDSLAVSLGERATINCKSSQSLFNSGNQKNYLTWYQQKPGQPPKLLIYWASTRESGVPDRFSGSGSGTDFTLTISSLQAEDVAVYYCQNAYSFPYTFGGGTKLEIKR
 | 84800 | 48200 |  |  | 7E3 (hybridoma clone, murine CLDN18.2 antigen-binding protein) (antibody, V domains shown, Murine monoclonal antibody tested as hybridoma culture supernatant) VH: EVQLQQSGPELVKPGASVKMSCKASGYTFTNYIIHWVKQKPGQGLEWIGYINPYTDGPKYNEKFKGRATLTSDKSSSTAYMEFSSLTSEDSAVYYCARLNRGNAMDYWGQGTSVTVSS VL: DIVMTQSPSSLTVTVREKVTLSCKSSQSLLNSGNQKNYLTWYQQKPGQPPKLLIYWASTRESGVPDRFTGSGSGTDFTLTISSVQAEDLAVYYCQNVYIYPFTFGAGTKLELKR
 |  |  | binds | binds | c14E12 (antibody, V domains shown) VH: EVQLQESGPELVKPGASVKMSCKASGYTFTNYIIHWVKQKPGQGLEWIGYINPYTDGPKYNEKFKGRATLTSDKSSSTAYMEFSSLTSEDSAVYYCARLNRGNAMDYWGQGTSVTVSS VL: DIVMTQSPSSLSVSAGEKVTMSCKSSQSLLNNGNQKNYLAWYQQKPGQPPKLLIYGASTRESGVPDRFTGSGSGTDFALTISSVQAEDLAVYYCQNDLYYPFTFGSGTKLDIKR
 |  |  | binds | binds | c7E3 (antibody, V domains shown) VH: EVQLQQSGPELVKPGASVKMSCKASGYTFTNYIIHWVKQKPGQGLEWIGYINPYTDGPKYNEKFKGRATLTSDKSSSTAYMEFSSLTSEDSAVYYCARLNRGNAMDYWGQGTSVTVSS VL: DIVMTQSPSSLTVTVREKVTLSCKSSQSLLNSGNQKNYLTWYQQKPGQPPKLLIYWASTRESGVPDRFTGSGSGTDFTLTISSVQAEDLAVYYCQNVYIYPFTFGAGTKLELKR
 |  |  | binds | binds | c3A6 (antibody, V domains shown) VH: EVQLVESGGDLVQPGGSLKLSCAASGFTLSRYGMSWVRQTPDKRLEWVSTIISGGINTYYSDSVKGRFSISRDNARNTLYLQMSSLKSEDTAMYYCGRLYYGNAMDYWGQGTAVTVSS VL: DIVMTQSPSSLTVTAGEKVTMSCKSSQSLLNSGNQKNYLTWYQQKPGQPPKLLIYWASTRESGVPDRFTGSGSGTHFTLTISSVQAEDLAVYYCQNDYSYPLTFGAGTKLELKR
 | 27600 | 16600 |  |  | 14E12 (hybridoma clone, murine CLDN18.2 antigen-binding protein) (antibody, V domains shown, Murine monoclonal antibody tested as hybridoma culture supernatant) VH: EVQLQESGPELVKPGASVKMSCKASGYTFTNYIIHWVKQKPGQGLEWIGYINPYTDGPKYNEKFKGRATLTSDKSSSTAYMEFSSLTSEDSAVYYCARLNRGNAMDYWGQGTSVTVSS VL: DIVMTQSPSSLSVSAGEKVTMSCKSSQSLLNNGNQKNYLAWYQQKPGQPPKLLIYGASTRESGVPDRFTGSGSGTDFALTISSVQAEDLAVYYCQNDLYYPFTFGSGTKLDIKR
 | 215000 | 101000 |  |  | 3A6 (hybridoma clone, murine CLDN18.2 antigen-binding protein) (antibody, V domains shown, Murine monoclonal antibody tested as hybridoma culture supernatant) VH: EVQLVESGGDLVQPGGSLKLSCAASGFTLSRYGMSWVRQTPDKRLEWVSTIISGGINTYYSDSVKGRFSISRDNARNTLYLQMSSLKSEDTAMYYCGRLYYGNAMDYWGQGTAVTVSS VL: DIVMTQSPSSLTVTAGEKVTMSCKSSQSLLNSGNQKNYLTWYQQKPGQPPKLLIYWASTRESGVPDRFTGSGSGTHFTLTISSVQAEDLAVYYCQNDYSYPLTFGAGTKLELKR
 |  |  | binds | binds | c17B10 (antibody, V domains shown) VH: EVQLQESGPELVKPGASVKMSCKASGYTFTNYIIHWVKQKPGQGLEWIGYINPYTDGPKYNEKFKGRATLTSDKSSSTAYMEFSSLTSEDSAVYYCARLNRGNAMDYWGQGTSVTVSS VL: DIVMTQSPSSLTVTAGEKVTMNCKSSQSLLNSGNQKNYLTWYQQKPGQPPKLLIYWASTRESGVPDRFTGSGSGTDFTLTISSVQAEDLAVYYCQNDYSFPFTFGSGTKLEIKR
 |  |  | binds | binds | c5E6 (antibody, V domains shown) VH: EVQLQQSGPELVKPGASVKMSCKASGYTFTNYVMNWVKQKPGQGLEWIGYINPYNDGTKYNERFKGKATLTSDKSSSTAFMEVSSLTSEDSAVYYCARLYRGNAMDYWGQGTSVTVSS VL: DIVMTQSPSSLTVTVREKVTLSCKSSQSLLNSGNQKNYLTWYQQKPGQPPKLLIYWASTRESGVPDRFTGSGSGTDFTLTISSVQAEDLAVYYCQNVYIYPFTFGAGTKLELKR
 | 293000 | 108000 |  |  | 5E6 (hybridoma clone, murine CLDN18.2 antigen-binding protein) (antibody, V domains shown, Murine monoclonal antibody tested as hybridoma culture supernatant) VH: EVQLQQSGPELVKPGASVKMSCKASGYTFTNYVMNWVKQKPGQGLEWIGYINPYNDGTKYNERFKGKATLTSDKSSSTAFMEVSSLTSEDSAVYYCARLYRGNAMDYWGQGTSVTVSS VL: DIVMTQSPSSLTVTVREKVTLSCKSSQSLLNSGNQKNYLTWYQQKPGQPPKLLIYWASTRESGVPDRFTGSGSGTDFTLTISSVQAEDLAVYYCQNVYIYPFTFGAGTKLELKR
 | 52100 | 30600 |  |  | 17B10 (hybridoma clone, murine CLDN18.2 antigen-binding protein) (antibody, V domains shown, Murine monoclonal antibody tested as hybridoma culture supernatant) VH: EVQLQESGPELVKPGASVKMSCKASGYTFTNYIIHWVKQKPGQGLEWIGYINPYTDGPKYNEKFKGRATLTSDKSSSTAYMEFSSLTSEDSAVYYCARLNRGNAMDYWGQGTSVTVSS VL: DIVMTQSPSSLTVTAGEKVTMNCKSSQSLLNSGNQKNYLTWYQQKPGQPPKLLIYWASTRESGVPDRFTGSGSGTDFTLTISSVQAEDLAVYYCQNDYSFPFTFGSGTKLEIKR
